Experimental data from paper PMC3098231.

B1: Motif Ia rank 3 hairpin (structured_DNA)
DNA: ACACGCGCATGCGGTTGGTGTGGTTTGGCATGCGCCACA
modifications: 3'-thiol for SPR
B2: Motif Ia rank 9 hairpin (structured_DNA)
DNA: ACACGCGCATGCGGTTGGTTTGGTTGGGCATGCGCCACA
modifications: 3'-thiol for SPR
B3: Motif Ia rank 25 hairpin (structured_DNA)
DNA: ACACGCGCATGCGGTTGGTGCGGTTGGGCATGCGCCACA
modifications: 3'-thiol for SPR

The binders below were run against human alpha-thrombin (Homo sapiens, UniProt P00734;P00734 328-363;364-622) (assay: SPR imaging (k-1/k1); 50 nM thrombin; 20 mM Tris-HCl pH 7.4, 140 mM NaCl, 5 mM KCl, 1 mM CaCl2, 1 mM MgCl2; SPR at 25 C; EMSA in the same selection buffer, 14% native PAGE in 1X Tris-glycine at 4 C).
Binder B1 has a Kd of 170 nM.
Work on B2 yielded a Kd of 650 nM.
For B3, the Kd was 2200 nM.
